Measurements as given in IntAct's records for PubMed 15930137.

B1: E3 ubiquitin-protein ligase NHLRC1 (Homo sapiens), Q6VVB1 (parent)
chain: MAAEASESGPALHELMREAEISLLECKVCFEKFGHRQQRRPRNLSCGHVVCLACVAALAHPRTLALECPFCRRACRGCDTSDCLPVLHLIELLGSALRQSPAAHRAAPSAPGALTCHHTFGGWGTLVNPTGLALCPKTGRVVVVHDGRRRVKIFDSGGGCAHQFGEKGDAAQDIRYPVDVTITNDCHVVVTDAGDRSIKVFDFFGQIKLVIGGQFSLPWGVETTPQNGIVVTDAEAGSLHLLDVDFAEGVLRRTERLQAHLCNPRGVAVSWLTGAIAVLEHPLALGTGVCSTRVKVFSSSMQLVGQVDTFGLSLYFPSKITASAVTFDHQGNVIVADTSGPAILCLGKPEEFPVPKPMVTHGLSHPVALTFTKENSLLVLDTASHSIKVYKVDWG
partner: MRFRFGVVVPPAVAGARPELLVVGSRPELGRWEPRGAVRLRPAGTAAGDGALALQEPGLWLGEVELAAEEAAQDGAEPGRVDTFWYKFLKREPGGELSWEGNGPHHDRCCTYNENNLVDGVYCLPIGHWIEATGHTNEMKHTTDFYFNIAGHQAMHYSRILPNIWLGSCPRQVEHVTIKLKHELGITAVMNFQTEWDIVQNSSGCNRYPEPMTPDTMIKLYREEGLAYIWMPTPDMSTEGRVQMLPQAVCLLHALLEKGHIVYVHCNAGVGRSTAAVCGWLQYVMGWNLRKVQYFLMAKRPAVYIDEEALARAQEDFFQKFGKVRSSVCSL

Variants of: B1
Settings: with epm2a_human EPM2A

Row | effect of a mutation on the interaction | Variant
1 | disrupting interaction | Q302P
2 | disrupting interaction | E280K

Variants of: B1
Settings: with epm2a_human EPM2A
Remark: another data set of the same source

Row | Variant | effect of a mutation on the interaction
3 | C26S | decreasing interaction
4 | F33S | decreasing interaction

More lines, now with the values ahead:

Row | effect of a mutation on the interaction | Variant
5 | decreasing interaction | Q302P
6 | decreasing interaction | E280K
